Results reported in US20130165389A1 (AMUNIX OPERATING, published 2013).

B1: aIL6R scFv-AE864, AC342 (scFv)
scFv: MADIQMTQSPSSLSASVGDRVTITCRASQDISSYLNWYQQKPGKAPKLLIYYTSRLHSGVPSRFSGSGSGTDFTFTISSLQPEDIATYYCQQGNTLPYTFGQGTKVEIKTGSGEGSEGEGGGEGSEGEGSGEGGEGEGSGSQVQLQESGPGLVRPSQTLSLTCTVSGYSITSDHAWSWVRQPPGRGLEWIGYISYSGITTYNPSLKSRVTMLRDTSKNQFSLRLSSVTAADTAVYYCARSLARTTAMDYWGQGSLVTVSSGSPGSPAGSPTSTEEGTSESATPESGPGTSTEPSEGSAPGSPAGSPTSTEEGTSTEPSEGSAPGTSTEPSEGSAPGTSESATPESGPGSEPATSGSETPGSEPATSGSETPGSPAGSPTSTEEGTSESATPESGPGTSTEPSEGSAPGTSTEPSEGSAPGSPAGSPTSTEEGTSTEPSEGSAPGTSTEPSEGSAPGTSESATPESGPGTSTEPSEGSAPGTSESATPESGPGSEPATSGSETPGTSTEPSEGSAPGTSTEPSEGSAPGTSESATPESGPGTSESATPESGPGSPAGSPTSTEEGTSESATPESGPGSEPATSGSETPGTSESATPESGPGTSTEPSEGSAPGTSTEPSEGSAPGTSTEPSEGSAPGTSTEPSEGSAPGTSTEPSEGSAPGTSTEPSEGSAPGSPAGSPTSTEEGTSTEPSEGSAPGTSESATPESGPGSEPATSGSETPGTSESATPESGPGSEPATSGSETPGTSESATPESGPGTSTEPSEGSAPGTSESATPESGPGSPAGSPTSTEEGSPAGSPTSTEEGSPAGSPTSTEEGTSESATPESGPGTSTEPSEGSAPGTSESATPESGPGSEPATSGSETPGTSESATPESGPGSEPATSGSETPGTSESATPESGPGTSTEPSEGSAPGSPAGSPTSTEEGTSESATPESGPGSEPATSGSETPGTSESATPESGPGSPAGSPTSTEEGSPAGSPTSTEEGTSTEPSEGSAPGTSESATPESGPGTSESATPESGPGTSESATPESGPGSEPATSGSETPGSEPATSGSETPGSPAGSPTSTEEGTSTEPSEGSAPGTSTEPSEGSAPGSEPATSGSETPGTSESATPESGPGTSTEPSEGSAPG
notes: Single-chain scFv-XTEN fusion expressed in E. coli; also called aIL6R-XTEN
B2: anti-CD40-AE864, AC384 (scFv)
scFv: MAEIVLTQSPATLSLSPGERATLSCRASQSISDYLHWYQQKPGQAPRLLIYYASHSISGIPARFSGSGSGTDFTLTISSLEPEDFAVYYCQHGHSYPWTFGGGTKVEIKTGSGEGSEGEGGGEGSEGEGSGEGGEGEGSGTQVQLVQSGSELKKPGASVKVSCKASGYAFTTTGMQWVRQAPGQGLEWMGWINTHSGVPKYVEDFKGRFVFSLDTSVSTAYLQISSLKAEDTAVYYCARSGNGNYDLAYFKYWGQGTLVTVSSGGSPAGSPTSTEEGTSESATPESGPGTSTEPSEGSAPGSPAGSPTSTEEGTSTEPSEGSAPGTSTEPSEGSAPGTSESATPESGPGSEPATSGSETPGSEPATSGSETPGSPAGSPTSTEEGTSESATPESGPGTSTEPSEGSAPGTSTEPSEGSAPGSPAGSPTSTEEGTSTEPSEGSAPGTSTEPSEGSAPGTSESATPESGPGTSTEPSEGSAPGTSESATPESGPGSEPATSGSETPGTSTEPSEGSAPGTSTEPSEGSAPGTSESATPESGPGTSESATPESGPGSPAGSPTSTEEGTSESATPESGPGSEPATSGSETPGTSESATPESGPGTSTEPSEGSAPGTSTEPSEGSAPGTSTEPSEGSAPGTSTEPSEGSAPGTSTEPSEGSAPGTSTEPSEGSAPGSPAGSPTSTEEGTSTEPSEGSAPGTSESATPESGPGSEPATSGSETPGTSESATPESGPGSEPATSGSETPGTSESATPESGPGTSTEPSEGSAPGTSESATPESGPGSPAGSPTSTEEGSPAGSPTSTEEGSPAGSPTSTEEGTSESATPESGPGTSTEPSEGSAPGTSESATPESGPGSEPATSGSETPGTSESATPESGPGSEPATSGSETPGTSESATPESGPGTSTEPSEGSAPGSPAGSPTSTEEGTSESATPESGPGSEPATSGSETPGTSESATPESGPGSPAGSPTSTEEGSPAGSPTSTEEGTSTEPSEGSAPGTSESATPESGPGTSESATPESGPGTSESATPESGPGSEPATSGSETPGSEPATSGSETPGSPAGSPTSTEEGTSTEPSEGSAPGTSTEPSEGSAPGSEPATSGSETPGTSESATPESGPGTSTEPSEGSAP
notes: Tested as cleared E. coli lysate, not purified; also called aCD40-XTEN; pBC0009
B3: anti-CD40-AE864, AC385 (scFv)
scFv: B2 scFv
notes: Tested as cleared E. coli lysate, not purified; also called aCD40-XTEN; pBC0010

Tests used:
human IL6R = target: T1, human IL6R (human, UniProt P08887 20-358, limits assumed); assay: ELISA, coated human IL6R, biotinylated anti-XTEN antibody and streptavidin-HRP
T1 construct: also called IL-6 receptor
T1 sequence (looked up): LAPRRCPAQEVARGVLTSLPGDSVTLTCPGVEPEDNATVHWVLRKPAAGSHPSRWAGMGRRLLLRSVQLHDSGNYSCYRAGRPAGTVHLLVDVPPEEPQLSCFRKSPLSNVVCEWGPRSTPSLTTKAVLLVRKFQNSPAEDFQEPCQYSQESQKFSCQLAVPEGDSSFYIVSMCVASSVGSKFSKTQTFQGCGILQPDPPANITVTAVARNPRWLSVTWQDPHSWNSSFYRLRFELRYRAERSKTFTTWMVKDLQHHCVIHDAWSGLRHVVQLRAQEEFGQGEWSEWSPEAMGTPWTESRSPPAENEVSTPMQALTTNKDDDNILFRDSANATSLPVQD

human CD40-Fc fusion = target: T2, human CD40-Fc fusion (human, UniProt P25942 21-193); assay: ELISA, dilution series of cleared lysate on coated human CD40-Fc; Kd from EC50 and an estimated 10 µM in the lysate
T2 construct: Coated at 100 ng/well; not shown: Fc part of the fusion
T2 sequence (P25942 21-193 limits assumed): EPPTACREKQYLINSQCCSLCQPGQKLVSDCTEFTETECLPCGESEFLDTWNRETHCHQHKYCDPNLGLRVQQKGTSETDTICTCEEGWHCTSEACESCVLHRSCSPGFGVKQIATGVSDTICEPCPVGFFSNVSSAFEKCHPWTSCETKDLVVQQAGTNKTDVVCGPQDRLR

Binder | EC50 (human IL6R) | Kd (human CD40-Fc fusion)
B1 | 5 nM | –
B2 | – | ~50 nM
B3 | – | ~50 nM
